Residue numbers refer to the chain shown, from its start. Names may count otherwise.
T1: EsCas13d, nuclease-dead (Eubacterium siraeum, UniProt B0MS50, R295A;H300A;R849A;H854A)
T1 sequence: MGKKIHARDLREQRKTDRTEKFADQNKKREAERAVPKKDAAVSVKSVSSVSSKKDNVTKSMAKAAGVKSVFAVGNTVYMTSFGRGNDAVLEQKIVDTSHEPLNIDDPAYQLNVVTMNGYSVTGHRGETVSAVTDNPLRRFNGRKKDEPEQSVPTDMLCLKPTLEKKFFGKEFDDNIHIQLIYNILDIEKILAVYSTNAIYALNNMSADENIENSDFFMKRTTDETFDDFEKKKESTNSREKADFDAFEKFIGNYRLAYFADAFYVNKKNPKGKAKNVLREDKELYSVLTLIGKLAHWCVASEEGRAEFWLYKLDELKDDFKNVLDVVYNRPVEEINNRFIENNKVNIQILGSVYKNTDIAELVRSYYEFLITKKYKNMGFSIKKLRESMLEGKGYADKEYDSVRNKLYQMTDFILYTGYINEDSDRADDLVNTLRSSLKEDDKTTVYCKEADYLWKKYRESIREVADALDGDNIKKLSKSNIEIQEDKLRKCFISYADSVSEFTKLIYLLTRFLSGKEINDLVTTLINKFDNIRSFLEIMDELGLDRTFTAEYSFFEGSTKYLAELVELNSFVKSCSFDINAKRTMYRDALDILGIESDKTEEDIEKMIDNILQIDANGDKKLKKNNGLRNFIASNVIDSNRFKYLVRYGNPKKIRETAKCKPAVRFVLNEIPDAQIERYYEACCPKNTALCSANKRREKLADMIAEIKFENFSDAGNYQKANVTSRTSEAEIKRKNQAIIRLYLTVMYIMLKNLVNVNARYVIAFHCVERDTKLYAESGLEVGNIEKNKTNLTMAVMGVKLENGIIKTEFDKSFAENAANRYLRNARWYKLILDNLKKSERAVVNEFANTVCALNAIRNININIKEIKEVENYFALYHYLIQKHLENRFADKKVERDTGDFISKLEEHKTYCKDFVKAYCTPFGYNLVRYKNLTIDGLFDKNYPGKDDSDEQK

B1: target 2 MT 5'PFS GGG 3'PFS AGC (mixed)
RNA 1: CACCCGUGCAAAAUUGCAGGGGUCUAAAACCUUCUCCAAAUUGUUUCAUCCU
RNA 2: GGGAAUGGAUCCACAUCUACGAAUUCGGGAGGAUGAAACAAUUUGGAGAAGAGCAGAUCGGAAGAGCACACGU
B2: target 2 MT 5'PFS GGG 3'PFS AGA (mixed)
RNA 1: B1 RNA 1
RNA 2: B1 RNA 2 with C54A
B3: target 2 MT 5'PFS UGU 3'PFS AUA (mixed)
RNA 1: B1 RNA 1
RNA 2: B1 RNA 2 with G27U, G29U, G53U, C54A
B4: target 2 MT 5'PFS AGA 3'PFS UCG (mixed)
RNA 1: B1 RNA 1
RNA 2: B1 RNA 2 with G27A, G29A, A52U, G53C, C54G
B5: target 2 MT 5'PFS AGA 3'PFS UCC (mixed)
RNA 1: B1 RNA 1
RNA 2: B1 RNA 2 with G27A, G29A, A52U, G53C
B6: target 2 MT 5'PFS GCU 3'PFS UAU (mixed)
RNA 1: B1 RNA 1
RNA 2: B1 RNA 2 with G28C, G29U, A52U, G53A, C54U
B7: target 2 MT 5'PFS GUC 3'PFS CUU (mixed)
RNA 1: B1 RNA 1
RNA 2: B1 RNA 2 with G28U, G29C, A52C, G53U, C54U
B8: target 2 MT 5'PFS UUA 3'PFS UUA (mixed)
RNA 1: B1 RNA 1
RNA 2: B1 RNA 2 with G27U, G28U, G29A, A52U, G53U, C54A
B9: target 2 MT 5'PFS CGC 3'PFS CUG (mixed)
RNA 1: B1 RNA 1
RNA 2: B1 RNA 2 with G27C, G29C, A52C, G53U, C54G
B10: target 2 MT 5'PFS UGG 3'PFS AAC (mixed)
RNA 1: B1 RNA 1
RNA 2: B1 RNA 2 with G27U, G53A
B11: target 2 MT 5'PFS GAC 3'PFS CCG (mixed)
RNA 1: B1 RNA 1
RNA 2: B1 RNA 2 with G28A, G29C, A52C, G53C, C54G
B12: target 2 MT 5'PFS CAU 3'PFS UUG (mixed)
RNA 1: B1 RNA 1
RNA 2: B1 RNA 2 with G27C, G28A, G29U, A52U, G53U, C54G
B13: target 2 MT 5'PFS UUA 3'PFS UUG (mixed)
RNA 1: B1 RNA 1
RNA 2: B1 RNA 2 with G27U, G28U, G29A, A52U, G53U, C54G
B14: target 2 MT 5'PFS ACA 3'PFS CGG (mixed)
RNA 1: B1 RNA 1
RNA 2: B1 RNA 2 with G27A, G28C, G29A, A52C, C54G
B15: target 2 MT 5'PFS GCA 3'PFS CUA (mixed)
RNA 1: B1 RNA 1
RNA 2: B1 RNA 2 with G28C, G29A, A52C, G53U, C54A
B16: target 2 MT 5'PFS GUC 3'PFS CUC (mixed)
RNA 1: B1 RNA 1
RNA 2: B1 RNA 2 with G28U, G29C, A52C, G53U
B17: target 2 MT 5'PFS CGC 3'PFS CUC (mixed)
RNA 1: B1 RNA 1
RNA 2: B1 RNA 2 with G27C, G29C, A52C, G53U
B18: target 2 MT 5'PFS ACA 3'PFS AGG (mixed)
RNA 1: B1 RNA 1
RNA 2: B1 RNA 2 with G27A, G28C, G29A, C54G
B19: target 2 MT 5'PFS UUA 3'PFS UUU (mixed)
RNA 1: B1 RNA 1
RNA 2: B1 RNA 2 with G27U, G28U, G29A, A52U, G53U, C54U
B20: target 2 MT 5'PFS UAU 3'PFS GAG (mixed)
RNA 1: B1 RNA 1
RNA 2: B1 RNA 2 with G27U, G28A, G29U, A52G, G53A, C54G
B21: target 2 MT 5'PFS GGG 3'PFS AGU (mixed)
RNA 1: B1 RNA 1
RNA 2: B1 RNA 2 with C54U
B22: target 2 MT 5'PFS CGC 3'PFS CUA (mixed)
RNA 1: B1 RNA 1
RNA 2: B1 RNA 2 with G27C, G29C, A52C, G53U, C54A
B23: target 2 MT 5'PFS UGU 3'PFS AUC (mixed)
RNA 1: B1 RNA 1
RNA 2: B1 RNA 2 with G27U, G29U, G53U
B24: target 2 MT 5'PFS GUC 3'PFS CUA (mixed)
RNA 1: B1 RNA 1
RNA 2: B1 RNA 2 with G28U, G29C, A52C, G53U, C54A
B25: target 2 MT 5'PFS GCU 3'PFS UUC (mixed)
RNA 1: B1 RNA 1
RNA 2: B1 RNA 2 with G28C, G29U, A52U, G53U
B26: target 2 MT 5'PFS ACA 3'PFS AGA (mixed)
RNA 1: B1 RNA 1
RNA 2: B1 RNA 2 with G27A, G28C, G29A, C54A
B27: target 2 MT 5'PFS AGA 3'PFS UCA (mixed)
RNA 1: B1 RNA 1
RNA 2: B1 RNA 2 with G27A, G29A, A52U, G53C, C54A
B28: target 2 MT 5'PFS GCA 3'PFS CUC (mixed)
RNA 1: B1 RNA 1
RNA 2: B1 RNA 2 with G28C, G29A, A52C, G53U
B29: target 2 MT 5'PFS GCA 3'PFS CUG (mixed)
RNA 1: B1 RNA 1
RNA 2: B1 RNA 2 with G28C, G29A, A52C, G53U, C54G
B30: target 2 MT 5'PFS ACA 3'PFS AGC (mixed)
RNA 1: B1 RNA 1
RNA 2: B1 RNA 2 with G27A, G28C, G29A
B31: target 2 MT 5'PFS ACA 3'PFS CGC (mixed)
RNA 1: B1 RNA 1
RNA 2: B1 RNA 2 with G27A, G28C, G29A, A52C
B32: target 2 MT 5'PFS GCA 3'PFS CUU (mixed)
RNA 1: B1 RNA 1
RNA 2: B1 RNA 2 with G28C, G29A, A52C, G53U, C54U
B33: target 1 insG 3' of 19,insC 3' of 19 (mixed)
RNA 1: CACCCGUGCAAAAAUGCAGGGGUCUAAAACUGAGCGGAUAACCUCUCUAUGG
RNA 2: GGGAAUGGAUCCACAUCUACGAAUUCGUACCAUGCAGAGAGGUUAUCCGCUCACCGAGAUCGGAAGAGCACACGU
B34: target 1 G5C,C21U (mixed)
RNA 1: B33 RNA 1
RNA 2: GGGAAUGGAUCCACAUCUACGAAUUCGUACUAUAGAGAGGUUAUCCCCUCACCGAGAUCGGAAGAGCACACGU
B35: target 1 A9G,G15U (mixed)
RNA 1: B33 RNA 1
RNA 2: B34 RNA 2 with U31C, G37U, A43G, C47G
B36: target 1 insC 3' of 8,insG 3' of 3 (mixed)
RNA 1: B33 RNA 1
RNA 2: GGGAAUGGAUCCACAUCUACGAAUUCGUACCAUAGAGAGGUUAUCCCGCUGCACCGAGAUCGGAAGAGCACACGU
B37: target 1 insC 3' of 20,insU 3' of 1 (mixed)
RNA 1: B33 RNA 1
RNA 2: GGGAAUGGAUCCACAUCUACGAAUUCGUACCACUAGAGAGGUUAUCCGCUCAUCCGAGAUCGGAAGAGCACACGU

Target: T1, EsCas13d, nuclease-dead
Assay: crRNA (strand 1, pre-loaded); Mg2+; 40 mM Tris-HCl pH 7.5, 150 mM NaCl, 6 mM MgCl2, 1 mM DTT, 0.1% Tween-20, 0.2 mg/ml BSA; 25 C; 10 min per concentration, then washed
Conditions: tags: His6-TwinStrep-SUMO cleaved; N-terminal SNAP kept (SNAP-Surface 488); label: 3' end held by stalled T7 RNA polymerase

Point of comparison: B11, Kd 13 ± 1.5 nM. Against it:
- B1 — 2-fold lower, 6.5 ± 0.4 nM
- B2 — 2.4-fold lower, 5.5 ± 0.5 nM
- B3 — within error, 9.9 ± 1.6 nM
- B4 — within error, 14 ± 4 nM
- B5 — 3.3-fold higher, 43 ± 15 nM
- B6 — within error, 11 ± 4 nM
- B7 — within error, 13.9 ± 1.2 nM
- B8 — 3.8-fold higher, 49 ± 21 nM
- B9 — 1.6-fold lower, 8 ± 1.9 nM
- B10 — 1.8-fold lower, 7.1 ± 0.6 nM
- B12 — 2.9-fold lower, 4.5 ± 0.4 nM
- B13 — within 1.5-fold, 19.3 ± 2.8 nM
- B14 — 2.5-fold lower, 5.2 ± 0.9 nM
- B15 — within error, 10.9 ± 2.5 nM
- B16 — within error, 15.5 ± 2.4 nM
- B17 — within 1.5-fold, 9.6 ± 1.7 nM
- B18 — 2.7-fold lower, 4.9 ± 0.6 nM
- B19 — 5.4-fold higher, ~70 nM
- B20 — 3.8-fold higher, ~50 nM
- B21 — 2.1-fold lower, 6.2 ± 0.5 nM
- B22 — 1.8-fold lower, 7.4 ± 1.8 nM
- B23 — within error, 16.6 ± 2.6 nM
- B24 — within error, 11.8 ± 1.8 nM
- B25 — 6.9-fold higher, ~90 nM
- B26 — 3.6-fold lower, 3.6 ± 1.3 nM
- B27 — 1.6-fold lower, 8.2 ± 1.8 nM
- B28 — 1.8-fold higher, 23 ± 7 nM
- B29 — within error, 12.5 ± 2 nM
- B30 — 2.8-fold lower, 4.7 ± 1.1 nM
- B31 — 2.7-fold lower, 4.9 ± 0.7 nM
- B32 — within error, 16 ± 4 nM
- B33 — 6.3-fold higher, 82 ± 11 nM
- B34 — 1.8-fold lower, 7.1 ± 0.4 nM
- B35 — within 1.5-fold, 17.3 ± 1.4 nM
- B36 — within 1.5-fold, 9.8 ± 0.4 nM
- B37 — 1.8-fold lower, 7.34 ± 0.35 nM
